According to patent US20150023979A1 (VALDOSPAN, published 2015):

Assays:
[1] = target: T1, HPV38 E7 protein (beta-papillomavirus), recombinant (His-TEV-E7 fusion from E. coli) (Human Papilloma Virus type 38 (HPV38), UniProt Q80908 1-100); test: ELISA and dot-blot
T1 construct: mature; also called HPVE7 38; VE7_HPV38; not shown: N-terminal 6x Histidine tag and TEV cleavage site of the vector
T1 sequence: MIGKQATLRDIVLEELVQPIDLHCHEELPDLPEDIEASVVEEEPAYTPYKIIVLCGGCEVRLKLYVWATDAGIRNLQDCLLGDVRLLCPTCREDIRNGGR

[2] = target: T2, HPV5 E7 protein (beta-papillomavirus), recombinant (His-TEV-E7 fusion from E. coli) (Human Papilloma Virus type 5 (HPV5), UniProt P06932 1-103); test: ELISA and dot-blot
T2 construct: mature; also called VE7_HPV05; not shown: N-terminal 6x Histidine tag and TEV cleavage site of the vector
T2 sequence: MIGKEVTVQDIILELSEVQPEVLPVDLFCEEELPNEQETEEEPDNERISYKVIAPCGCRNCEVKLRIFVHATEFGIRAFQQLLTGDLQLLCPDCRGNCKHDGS

[3] = target: T3, HPV6 E7 protein (low risk type), recombinant (His-TEV-E7 fusion from E. coli) (Human Papilloma Virus type 6 (HPV6), UniProt Q84292 1-98); test: ELISA and dot-blot
T3 construct: mature; the only HPV6 entry in the list of constructs is VE7_HPV6A; also called VE7_HPV6A; not shown: N-terminal 6x Histidine tag and TEV cleavage site of the vector
T3 sequence: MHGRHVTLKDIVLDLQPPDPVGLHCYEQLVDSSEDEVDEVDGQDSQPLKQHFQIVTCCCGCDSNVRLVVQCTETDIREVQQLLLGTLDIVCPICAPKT

[4] = target: T4, HPV11 E7 protein (low risk type), recombinant (His-TEV-E7 fusion from E. coli) (Human Papilloma Virus type 11 (HPV11), UniProt P04020 1-98); test: ELISA and dot-blot
T4 construct: mature; also called VE7_HPV11; not shown: N-terminal 6x Histidine tag and TEV cleavage site of the vector
T4 sequence: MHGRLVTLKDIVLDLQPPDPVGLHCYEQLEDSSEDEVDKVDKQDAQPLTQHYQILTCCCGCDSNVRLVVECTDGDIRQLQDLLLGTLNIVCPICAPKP

[5] = target: T5, HPV39 E7 protein, recombinant (His-TEV-E7 fusion from E. coli) (Human Papilloma Virus type 39 (HPV39), UniProt P24837 1-109, CKII phosphorylation of the consensus site serine in the antigen preparation of Example 2); test: ELISA and dot-blot, semiquantitative crossreactivity
T5 construct: mature; also called VE7_HPV39; not shown: N-terminal 6x Histidine tag and TEV cleavage site of the vector
T5 sequence: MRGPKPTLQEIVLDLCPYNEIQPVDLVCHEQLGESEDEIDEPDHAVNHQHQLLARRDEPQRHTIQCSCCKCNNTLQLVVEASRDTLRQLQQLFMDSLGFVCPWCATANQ

[6] = target: T6, HPV45 E7 protein, recombinant (His-TEV-E7 fusion from E. coli) (Human Papilloma Virus type 45 (HPV45), UniProt P21736 1-106, CKII phosphorylation of the consensus site serines in the antigen preparation of Example 2; biotin on primary amines in the SPR assay); test: as above
T6 construct: mature; also called VE7_HPV45; not shown: N-terminal 6x Histidine tag and TEV cleavage site of the vector
T6 sequence: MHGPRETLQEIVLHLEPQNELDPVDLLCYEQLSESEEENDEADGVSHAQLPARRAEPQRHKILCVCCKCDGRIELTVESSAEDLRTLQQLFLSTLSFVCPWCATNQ

[7] = target: T7, HPV51 E7 protein, recombinant (His-TEV-E7 fusion from E. coli) (Human Papilloma Virus type 51 (HPV51), UniProt P26558 1-101, CKII phosphorylation of the consensus site serines in the antigen preparation of Example 2); test: as above
T7 construct: mature; also called VE7_HPV51; not shown: N-terminal 6x Histidine tag and TEV cleavage site of the vector
T7 sequence: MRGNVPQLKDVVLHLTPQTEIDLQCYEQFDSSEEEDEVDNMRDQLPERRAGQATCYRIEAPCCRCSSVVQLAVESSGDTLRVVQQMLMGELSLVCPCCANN

[8] = target: T8, HPV56 E7 protein, recombinant (His-TEV-E7 fusion from E. coli) (Human Papilloma Virus type 56 (HPV56), UniProt P36833 1-105, CKII phosphorylation of the consensus site serines in the antigen preparation of Example 2); test: as above
T8 construct: mature; also called VE7_HPV56; not shown: N-terminal 6x Histidine tag and TEV cleavage site of the vector
T8 sequence: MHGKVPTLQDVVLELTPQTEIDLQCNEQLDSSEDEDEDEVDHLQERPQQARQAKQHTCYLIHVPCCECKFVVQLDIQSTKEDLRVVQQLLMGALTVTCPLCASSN

[9] = target: T9, HPV52 E7 protein, recombinant (His-TEV-E7 fusion from E. coli) (Human Papilloma Virus type 52 (HPV52), UniProt P36831 1-99, CKII phosphorylation of the consensus site serines in the antigen preparation of Example 2); test: ELISA and dot-blot, semiquantitative crossreactivity (++ strong positive)
T9 construct: mature; also called VE7_HPV52; not shown: N-terminal 6x Histidine tag and TEV cleavage site of the vector
T9 sequence: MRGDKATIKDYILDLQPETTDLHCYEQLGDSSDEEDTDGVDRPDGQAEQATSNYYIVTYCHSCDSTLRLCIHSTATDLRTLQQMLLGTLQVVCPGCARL

[10] = target: T10, HPV16 E7 protein, recombinant (His-TEV-E7 fusion from E. coli) (Human Papilloma Virus type 16 (HPV16), UniProt P03129 1-98, CKII phosphoserines at E7 S31 and S32 (chain 1 pos 49 and 50) in the antigen preparation of Example 2, written S; biotin on primary amines (Sulfo-NHS-LC Biotin) in the SPR assay.); test: SPR (BIAcore X100), biotin-E7 on streptavidin SA chip, antibody as analyte, bivalent analyte fit, 25 C
T10 construct: also called VE7_HPV16
T10 sequence: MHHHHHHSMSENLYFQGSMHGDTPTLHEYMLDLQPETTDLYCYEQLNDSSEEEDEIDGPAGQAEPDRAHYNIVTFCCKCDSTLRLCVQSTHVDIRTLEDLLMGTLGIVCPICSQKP

Binder	binding result [1]	binding result [2]	binding result [3]	binding result [4]	binding result [5]	binding result [6]	binding result [7]	binding result [8]	binding result [9]	Kd [10] [nM]	kon [10] [M⁻¹ s⁻¹]
ACAB452 (antibody, IgG1, V domains shown, also called HPV45E7 IgG1 antibody ACAB452) VH: DVQLQESGPGLVKPSQSLSLTCTVTGYSITSDYAWNWIRQFPGNKLEWVGYITYSGSTNYNPSLKSRISITRDTSKNQFFLQFNSVTSEDTATYFCARSWFAYWGQGTLVTVSS VL: DIVMTQTPLSLPVSLGDQASISCRSSQSLVHSNGNTYLHWFLQKPGQSPKLLIYKVSNRFSGVPDRFSGSGSGTDFTLKISRVEAEDLGVYFCLQSAHVPLTFGAGTKLELTR	no binding	no binding	no binding	no binding	–	–	–	–	–	–	–
ACAB164 (antibody, V domains shown, the printed entries run on into the first residues of the constant domains; also called HPV16E7 IgG2a antibody ACAB164) VH: EVQLQQSGLALVQPGASVKISCRTSGYTFTEYTLHWVKQSHGKSLEWIGGINPNNGSPKYNQKFKGKATLTVDKSSSTAYMELRSLTSEDSAVYYCARLDINSFFDYWGQGTTLTVSS VL: DVVMTQSPLSLPVSLGDQASISCRSSQSLVHSNGNTYLQWYLQKPGQSPKLLIYKLSNRFSGVPDRFSGSGSGTDFTLKISRVEAEDLGVYSCSQTTHVPPTFGGGTKLEIKR	no binding	no binding	no binding	no binding	no binding	no binding	no binding	no binding	binds	0.052	261000
ACAB161 (antibody, IgG2a, V domains shown, the printed entries run on into the first residues of the constant domains; also called HPV16E7 IgG2a antibody ACAB161) VH: EVMLVESGGGLVKPGGSLKLSCAASGFTFSRYTMSWVRQTPEKRLEWVATISSGGTNTNYTDSVKGRFTISRDNAKNNLYLQMSSLRSEDTALYYCTRGVRRGDGYAMDYWGQGTSVTVSS VL: DIVLTQAAPSVPVTPGESVSISCRSTKSLLHSNGNTYLYWFLQRPGQSPQALIYRTSNLASGVPDRFSGSGSGTAFTLRISRVEAEDVGVYYCMQHLEYPLTFGAGTKLELKR	no binding	no binding	no binding	no binding	no binding	no binding	no binding	no binding	binds	3.38	58400
